Reference: IntAct's records for PubMed 22916032

B1: U3 small nucleolar RNA-associated protein 4 homolog (Homo sapiens), Q969X6 (parent)
chain: MGEFKVHRVRFFNYVPSGIRCVAYNNQSNRLAVSRTDGTVEIYNLSANYFQEKFFPGHESRATEALCWAEGQRLFSAGLNGEIMEYDLQALNIKYAMDAFGGPIWSMAASPSGSQLLVGCEDGSVKLFQITPDKIQFERNFDRQKSRILSLSWHPSGTHIAAGSIDYISVFDVKSGSAVHKMIVDRQYMGVSKRKCIVWGVAFLSDGTIISVDSAGKVQFWDSATGTLVKSHLIANADVQSIAVADQEDSFVVGTAEGTVFHFQLVPVTSNSSEKQWVRTKPFQHHTHDVRTVAHSPTALISGGTDTHLVFRPLMEKVEVKNYDAALRKITFPHRCLISCSKKRQLLLFQFAHHLELWRLGSTVATGKNGDTLPLSKNADHLLHLKTKGPENIICSCISPCGSWIAYSTVSRFFLYRLNYEHDNISLKRVSKMPAFLRSALQILFSEDSTKLFVASNQGALHIVQLSGGSFKHLHAFQPQSGTVEAMCLLAVSPDGNWLAASGTSAGVHVYNVKQLKLHCTVPAYNFPVTAMAIAPNTNNLVIAHSDQQVFEYSIPDKQYTDWSRTVQKQGFHHLWLQRDTPITHISFHPKRPMHILLHDAYMFCIIDKSLPLPNDKTLLYNPFPPTNESDVIRRRTAHAFKISKIYKPLLFMDLLDERTLVAVERPLDDIIAQLPPPIKKKKFGT
partner: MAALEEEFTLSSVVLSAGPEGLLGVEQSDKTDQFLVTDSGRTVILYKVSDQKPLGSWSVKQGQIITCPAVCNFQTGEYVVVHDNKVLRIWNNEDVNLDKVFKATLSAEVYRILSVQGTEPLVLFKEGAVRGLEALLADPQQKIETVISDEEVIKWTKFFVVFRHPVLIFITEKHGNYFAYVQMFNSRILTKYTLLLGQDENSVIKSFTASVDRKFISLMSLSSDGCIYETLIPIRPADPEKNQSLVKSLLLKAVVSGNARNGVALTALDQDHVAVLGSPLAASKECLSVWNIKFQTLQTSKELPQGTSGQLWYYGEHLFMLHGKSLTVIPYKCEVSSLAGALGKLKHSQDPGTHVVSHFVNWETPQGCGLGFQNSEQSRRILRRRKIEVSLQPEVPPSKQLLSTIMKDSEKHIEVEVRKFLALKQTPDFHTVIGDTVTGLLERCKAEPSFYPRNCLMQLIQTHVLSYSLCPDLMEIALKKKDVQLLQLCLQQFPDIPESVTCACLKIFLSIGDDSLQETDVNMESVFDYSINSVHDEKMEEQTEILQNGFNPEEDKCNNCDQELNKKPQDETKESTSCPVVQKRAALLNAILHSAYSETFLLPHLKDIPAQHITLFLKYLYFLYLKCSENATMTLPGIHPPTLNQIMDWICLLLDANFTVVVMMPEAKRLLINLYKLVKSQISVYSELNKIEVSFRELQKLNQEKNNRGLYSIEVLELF

Variants of: B1
Settings: with nol11_human NOL11, Q9H8H0

Row | effect of a mutation on the interaction | Variant
1 | decreasing interaction strength | R565W
